Results reported in patent US20230242646A1 (JJP BIOLOGICS SP Z O O, published 2023).

Experiments:
[1] = target: T1, recombinant C-terminal polyhistidine-tagged human (extracellular) CD89 (Sino Biological) (human, UniProt P24071 22-227); assay: BLI (Octet RED96), biotinylated Ab on streptavidin tips, rhuCD89 analyte, 1:1 model
T1 construct: extracellular domain; bought protein; also called rhuCD89; soluble monomeric rhuCD89
Experimental: Equilibrium dissociation constants (KD) were determined using a 1:1 Langmuir binding model in Octet® RED96 software (ForteBio).

[2] = target: T1, recombinant C-terminal …; assay: ELISA, antibody before serum IgA on coated rhuCD89; IgA detected
[3] = target: T2, membrane-bound full-length human CD89 on HEK293F cells (human, UniProt P24071 22-287); assay: FACS HEK293F-huCD89, 10 ug/mL; competitor PE-A59
T2 construct: 2 or transient transfectants; also called membrane human CD89; human FcaRI
Experimental: (§1) Then, 10 µL/tube (i.e., 0.1 × 10⁶ cells) of these cells were incubated with or without 100 µL purified mouse anti-human CD89 antibody at 10 µg/mL (in PBS/BSA/NaN₃) for 30 minutes at 4° C. […] After extensive washing in PBS/BSA/NaN₃, cells were fixed in 2% formaldehyde in PBS/BSA/NaN₃ for 30 minutes at 4° C.

[4] = target: T3, chimeric human/cynomolgus monkey CD89-hotspots on HEK293F cells (human/cynomolgus chimera, UniProt P24071 22-287); assay: FACS, transiently transfected HEK293F
T3 construct: also called dThr58, Gln59; dArg73, Arg74, Lys76
T3 chain: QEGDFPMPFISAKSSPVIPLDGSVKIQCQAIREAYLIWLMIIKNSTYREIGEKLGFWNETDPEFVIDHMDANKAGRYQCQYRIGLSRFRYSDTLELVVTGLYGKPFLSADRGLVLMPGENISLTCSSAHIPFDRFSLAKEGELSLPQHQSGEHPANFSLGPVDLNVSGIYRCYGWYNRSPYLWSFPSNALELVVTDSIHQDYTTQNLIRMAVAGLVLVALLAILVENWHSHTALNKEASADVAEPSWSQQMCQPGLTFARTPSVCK
Experimental: (§2) To this end, transient transfected HEK293F cells were put at 10 × 10⁶ cells/mL in ice-chilled phosphate-buffered saline containing 0.1% BSA (Sigma)/0.05% NaN₃ (PBS/BSA/NaN₃) supplemented with 50 µg/mL human IgGs (blocking FcY receptors; Sigma) for 10 minutes at 4° C. Then, 10 µL/tube (i.e., 0.1 × 10⁶ cells) of these cells were incubated with or without 100 µL purified mouse anti-human CD89 antibody at 10 µg/mL (in PBS/BSA/NaN₃) for 30 minutes at 4° C. […] After extensive washing in PBS/BSA/NaN₃, cells were subsequently incubated with 1:200 diluted PE-conjugated goat anti-mouse IgG Fcy-specific antibodies (Jackson ImmunoResearch) for 30 minutes at 4° C. After extensive washing in PBS/BSA/NaN₃, cells were fixed in 2% formaldehyde in PBS/BSA/NaN₃ for 30 minutes at 4° C.

[5] = target: T4, chimeric human/cynomolgus monkey CD89-II on HEK293F cells (human/cynomolgus chimera, UniProt P24071 22-287); assay: FACS, 10 µg/mL, transiently transfected HEK293F
T4 construct: also called dIle47 - Ile71 human EC1-CD89; II (47-71)
T4 chain: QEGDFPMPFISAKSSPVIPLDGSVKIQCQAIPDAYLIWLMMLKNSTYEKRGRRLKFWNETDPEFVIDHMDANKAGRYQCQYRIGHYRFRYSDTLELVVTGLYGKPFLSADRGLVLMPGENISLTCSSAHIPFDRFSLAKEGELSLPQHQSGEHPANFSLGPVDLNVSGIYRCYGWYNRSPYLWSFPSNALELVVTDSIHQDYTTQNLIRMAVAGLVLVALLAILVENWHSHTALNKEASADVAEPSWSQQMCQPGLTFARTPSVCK
Experimental: as §2

[6] = target: T5, chimeric human/cynomolgus monkey CD89-I on HEK293F cells (human/cynomolgus chimera, UniProt P24071 22-287); assay: FACS, 10 µg/mL, transiently transfected HEK293F
T5 construct: also called dGln22 - Lys46 human EC1-CD89; I (22-46)
T5 chain: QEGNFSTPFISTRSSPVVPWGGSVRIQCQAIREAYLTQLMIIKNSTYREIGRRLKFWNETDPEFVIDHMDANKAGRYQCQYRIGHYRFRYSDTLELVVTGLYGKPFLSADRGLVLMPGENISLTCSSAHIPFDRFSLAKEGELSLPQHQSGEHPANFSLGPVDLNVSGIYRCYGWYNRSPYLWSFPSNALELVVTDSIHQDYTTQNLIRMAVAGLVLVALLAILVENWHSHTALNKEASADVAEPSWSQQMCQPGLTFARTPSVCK
Experimental: as §2

[7] = target: T6, chimeric human/cynomolgus monkey CD89-IV on HEK293F cells (human/cynomolgus chimera, UniProt P24071 22-287); assay: FACS, 10 µg/mL, transiently transfected HEK293F
T6 construct: also called dArg97 - Gly121 human EC1-CD89
T6 chain: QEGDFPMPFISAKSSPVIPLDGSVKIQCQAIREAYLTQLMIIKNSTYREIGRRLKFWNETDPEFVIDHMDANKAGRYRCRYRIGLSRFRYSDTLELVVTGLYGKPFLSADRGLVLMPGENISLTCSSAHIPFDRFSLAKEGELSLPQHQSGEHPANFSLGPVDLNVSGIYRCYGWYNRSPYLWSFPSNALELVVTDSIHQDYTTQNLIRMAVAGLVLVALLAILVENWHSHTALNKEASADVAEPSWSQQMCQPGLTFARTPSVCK
Experimental: as §2

[8] = target: T2, membrane-bound full-length human CD89 …; assay: FACS, antibody before secretory IgA on HEK293F-huCD89; IgA detected
Experimental: Then, 10 µL/tube (i.e., 0.1 x 10⁶ cells) of these cells were incubated with or without 50 µL titrated (in PBS/BSA/NaN₃) purified mouse anti-human CD89 antibody/tube for 30 minutes at 4° C. […] After extensive washing in PBS/BSA/NaN₃, 1:200 diluted PE-conjugated streptavidin (Jackson ImmunoResearch) was added, and incubated for 30 minutes at 4° C. After extensive washing in PBS/BSA/NaN₃, cells were fixed in 4% formaldehyde in PBS/BSA/NaN₃ for 30 minutes at 4° C.

[9] = target: membrane human CD89 on ex vivo primary human neutrophilic granulocytes or monocytic U937 cells (human, UniProt P24071 22-287); assay: cell-based or functional assay
[10] = target: T2, membrane-bound full-length human CD89 …; assay: FACS, antibody before serum IgA on HEK293F-huCD89; IgA detected
Experimental: Then, 10 µL/tube (i.e., 0.1 x 10⁶ cells) of these cells were incubated with 50 µL titrated (in PBS/BSA/NaN₃) purified mouse anti-human CD89 antibody/tube for 30 minutes at 4° C. […] After extensive washing in PBS/BSA/NaN₃, 1:200 diluted PE-conjugated streptavidin (Jackson ImmunoResearch) was added, and incubated for 30 minutes at 4° C. After extensive washing in PBS/BSA/NaN₃, cells were fixed in 2% formaldehyde in PBS/BSA/NaN₃ for 30 minutes at 4° C.

[11] = target: T1, recombinant C-terminal …; assay: ELISA, coated rhuCD89
Experimental: After extensive washing with PBS/0.05% Tween 20, plates were blocked with PBS/0.05% Tween 20/1% BSA (Roche) for 1 hour at RT. Subsequently, plates were incubated with 50 µL titrated (in block buffer) purified mouse anti-human CD89 antibody/well for 1 hour at RT. […] After extensive washing in PBS/0.05% Tween 20, binding of antibodies on rhuCD89 was determined with 1:5,000 diluted horseradish peroxidase (HRP)-conjugated goat anti-mouse IgG Fcy-specific antibodies (Jackson ImmunoResearch) for 1 hour at RT, followed by a ready-to-use solution of TMB substrate (Invitrogen) for colorimetric detection.
After extensive washing with PBS/0.05% Tween 20, plates were blocked with PBS/0.05% Tween 20/1% BSA (Roche) for 1 hour at RT. […] After extensive washing in PBS/0.05% Tween 20, binding of antibodies on rhuCD89 was determined with 1:5,000 diluted horseradish peroxidase (HRP)-conjugated goat anti-human IgG Fcy-specific antibodies (Jackson ImmunoResearch) for 1 hour at RT, followed by a ready-to-use solution of TMB substrate (Invitrogen) for colorimetric detection.

[12] = target: T2, membrane-bound full-length human CD89 …; assay: FACS HEK293F-huCD89, 10 ug/mL; competitor PE-A3
Experimental: as §1

[13] = target: T2, membrane-bound full-length human CD89 …; assay: FACS HEK293F-huCD89
Experimental: After extensive washing in PBS/BSA/NaN₃, cells were subsequently incubated with 1:200 diluted PE-conjugated goat anti-human IgG Fcy-specific antibodies (Jackson ImmunoResearch) for 30 minutes at 4° C. After extensive washing in PBS/BSA/NaN₃, cells were fixed in 2% formaldehyde in PBS/BSA/NaN₃ for 30 minutes at 4° C.

[14] = target: T7, membrane full-length cynomolgus monkey CD89 on HEK293F cells (cynomolgus monkey); assay: FACS, transiently transfected HEK293F
T7 construct: also called cynoCD89; cynomolgus EC1-CD89
T7 chain: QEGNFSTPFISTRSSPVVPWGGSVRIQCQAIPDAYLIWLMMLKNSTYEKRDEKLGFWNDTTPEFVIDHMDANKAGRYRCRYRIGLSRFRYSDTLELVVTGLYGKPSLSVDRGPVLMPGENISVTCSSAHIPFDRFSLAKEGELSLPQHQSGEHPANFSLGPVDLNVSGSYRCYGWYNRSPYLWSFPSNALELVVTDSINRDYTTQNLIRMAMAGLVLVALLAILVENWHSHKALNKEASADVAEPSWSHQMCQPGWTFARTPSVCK
Experimental: To this end, transient transfected HEK293F cells were put at 10 x 10⁶ cells/mL in ice-chilled phosphate-buffered saline containing 0.1% BSA (Sigma)/0.05% NaN₃ (PBS/BSA/NaN₃) supplemented with 50 µg/mL human IgGs (blocking FcY receptors; Sigma) for 10 minutes at 4° C. Then, 10 µL/tube (i.e., 0.1 × 10⁶ cells) of these cells were incubated with or without 100 µL purified mouse anti-human CD89 antibody at 10 µg/mL (in PBS/BSA/NaN₃) for 30 minutes at 4° C. […] After extensive washing in PBS/BSA/NaN₃, cells were subsequently incubated with 1:200 diluted PE-conjugated goat anti-mouse IgG Fcy-specific antibodies (Jackson ImmunoResearch) for 30 minutes at 4° C. After extensive washing in PBS/BSA/NaN₃, cells were fixed in 2% formaldehyde in PBS/BSA/NaN₃ for 30 minutes at 4° C.

B1: CD89/IgA blocking mouse anti-human CD89-specific antibody 10E7 (antibody, V domains shown)
VH: EVQLVESGGGLVQPGGSLKLSCAASGLTFSSYGMSWVRQTPDKRLELVATINGNGDITYYPDSVKGRFTISRDNAKNTLYLQMSSLKSEDTAMYYCARDYDYDYAMDYWGQGTSVTVSS
VL: DIQMTQSTSSLSASLGDSVTISCRASQDIINYLNWYQQKPDGTVKLLIYYTSRLHSGVPSRFSGSGSGTEYSLTVSNLEKEDIATYFCQQGKTLPYTFGGGTKLEIK
notes: biotinylated in the Octet assay; also called mouse 10E7
Kd [1]: 1.67 nM
koff [1]: 0.00111 s⁻¹
kon [1]: 687000 M⁻¹ s⁻¹
IC50 (read off the curve) [2]: ~0.06 µg/mL
% blocking of PE-A59 binding [3]: < 25%
binding result [4]: no binding (tested: 10 µg/mL)
binding result [5]: binds
binding result [6]: binds
binding result [7]: binds
IC50 (read off the curve) [8]: ~1 µg/mL
IC50 (read off the bars), binding of granulocytes to plate-bound serum IgA [Donor 2] [9]: ~0.4 µg/mL
IC50 (read off the curve) [10]: ~0.7 µg/mL
EC50 [11]: 0.02 µg/mL
% blocking of PE-A3 binding [12]: < 25%
EC50 [13]: 0.637 µg/mL
binding result [14]: no binding (tested: 10 µg/mL)
